Results on 13 molecules are retold here after patent US20190248902A1 (published 2019).

Test [1] concerns the target T1, Human ASGR-2 (human, UniProt P07307 1-311).
T1 construct: Expressed on HEK 293 cells; cDNA GenBank NM_080913.3; also called huASGR-2; hASGR-2
T1 sequence: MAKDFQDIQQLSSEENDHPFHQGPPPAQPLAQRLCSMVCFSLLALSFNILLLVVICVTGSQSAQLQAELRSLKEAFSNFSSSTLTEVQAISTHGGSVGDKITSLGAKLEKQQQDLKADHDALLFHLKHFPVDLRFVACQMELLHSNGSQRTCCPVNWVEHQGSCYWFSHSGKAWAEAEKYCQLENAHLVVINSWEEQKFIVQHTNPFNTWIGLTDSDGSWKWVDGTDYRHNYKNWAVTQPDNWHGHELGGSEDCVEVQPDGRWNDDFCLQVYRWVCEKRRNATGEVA
Description: FACS on transfected HEK 293 cells; binding = signal at least 2x irrelevant IgG. The procedure: Human ASGR-1-specific, ligand competing antibody samples were tested for binding to ASGR-1 from other species (cynomologus monkey ASGR-1, mouse ASGR-1, rat ASGR-1, dog ASGR-1, and pig ASGR-1) as well as to human ASGR-2 in FACS binding assays at normalized antibody concentrations. For cell-based assays, HEK 293 cells expressing the appropriate antigen of interest were mixed with antibody sample or controls, incubated for 1 hour at 4° C., and then washed twice. Cells with bound antibody were then incubated with Alexa Fluor® 647 IgG Fc fragment-specific detection antibody and 7-AAD viability stain for 15 minutes at 4° C., washed once and resuspended in FACS buffer. Samples were analyzed using a BD Accuri™ Flow Cytometer and an Intellicyt HyperCyt Autosampler. As a negative control, supernatants and controls were also screened against HEK 293 cells transfected with empty parental vector. […] For membrane-prep binding assays, ASGR-1 species specific membrane preps were used to coat LumAvidin® microspheres (beads) and tested for binding to selected hybridoma supernatants or controls. Briefly, ASGR-1 species specific membrane preps were incubated with streptavidin-coated LumAvidin® beads for 45 minutes in the dark at room temperature and washed twice. Beads were resuspeneded in FACS buffer containing Stabilguard®. Antigen-bound beads were then incubated with normalized antibody sample for 1 hour in the dark at room temperature, washed twice, incubated with Alexa Fluor® 488 IgG Fc fragment-specific detection antibody for 15 minutes in the dark at room temperature, washed once and finally resuspended in FACS buffer. Samples were analyzed using an Intellicyt iQue™ Screener Platform. FACS buffer supplemented with 1 mM Calcium Chloride was used in all steps. As a negative control, supernatants and controls were also screened against a non-ASGR-1 antigen membrane prep coated on the LumAvidin® beads.

The target in test [2] is T2, human ASGR-1 (wild type) (human, UniProt P07306 1-291).
T2 construct: also called wt ASGR1; huASGR-1
T2 sequence: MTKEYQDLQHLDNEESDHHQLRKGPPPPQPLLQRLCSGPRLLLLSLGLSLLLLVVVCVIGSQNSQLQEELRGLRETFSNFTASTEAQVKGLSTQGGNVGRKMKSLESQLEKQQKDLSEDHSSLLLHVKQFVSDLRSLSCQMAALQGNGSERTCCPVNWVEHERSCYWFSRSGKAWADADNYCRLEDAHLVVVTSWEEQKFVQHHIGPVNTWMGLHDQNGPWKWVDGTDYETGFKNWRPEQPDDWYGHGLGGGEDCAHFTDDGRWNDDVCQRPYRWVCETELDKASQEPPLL
Description: FACS, transfected CHO-S cells, mAb 5 ug/ml. In outline: (§1)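 Transiently transfected CHO-S cells expressing wild-type or mutant hASGR-1 incubated with antibody at 5 ug/ml, 1 h at 4 °C; bound antibody detected by Alexa Fluor 647 anti-Fc plus 7-AAD, by flow cytometry. Binding normalized to expression using an unaffected antibody (65C12), then to wild type; hits defined as >3× IQR above third quartile.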

Test [3] concerns the target T3, human ASGR-1 mutant construct H203 (human, UniProt P07306 1-291).
T3 construct: Arg/Glu scanning: non-arginine residues were changed to arginine; Transiently expressed on CHO-S cells
T3 sequence: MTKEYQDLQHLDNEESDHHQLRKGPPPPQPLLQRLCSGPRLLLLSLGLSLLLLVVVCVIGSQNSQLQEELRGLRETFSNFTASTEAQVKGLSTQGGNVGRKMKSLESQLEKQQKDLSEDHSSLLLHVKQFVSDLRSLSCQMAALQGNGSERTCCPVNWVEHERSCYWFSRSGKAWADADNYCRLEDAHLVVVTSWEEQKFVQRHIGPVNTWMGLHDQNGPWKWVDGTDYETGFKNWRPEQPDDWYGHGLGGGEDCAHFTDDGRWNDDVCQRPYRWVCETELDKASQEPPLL
Description: FACS, transfected CHO-S cells, mAb 5 ug/ml. In outline:
as §1
(In flow cytometry, cells or beads pass a laser one at a time.)

For test [4], the target named is T3, human ASGR-1 mutant construct H203. Briefly: FACS ratio: H203 normalized value / wt normalized value. Summed up:
as §1

B1: 218G4 (antibody, V domains shown)
VH: QVQLVESGGGVVQPGRSLRLSCAASGFTFSSYGLHWVRQAPGKGLEWVAVIWYDGSNKYYADSVKGRFTISRDNSKNTLYLQMNSLRVEDTAVYYCANWYYYYYGMDVWGQGTTVTVSS
VL: QSVLTQPPSVSAAPGQKVTISCSGSSSNIGNNYVSWYQQLPGTAPKLLLYDSNKRPSGIPARFSGSKSGTSATLGITGLQTGDEADYYCGTWDSSLNTVVFGGGTKLTVL
notes: Tested as hybridoma supernatant at normalized concentration
With B1, the binding result in test [1] was “no binding”.

B2: 218G4 (antibody, V domains shown)
VH: QVQLVESGGGVVQPGRSLRLSCAASGFTFSSYGLHWVRQAPGKGLEWVAVIWYDGSNKYYADSVKGRFTISRDNSKNTLYLQMNSLRVEDTAVYYCANWYYYYYGMDVWGQGTTVTVSS
VL: QSVLTQPPSVSAAPGQKVTISCSGSSSNIGNNYVSWYQQLPGTAPKLLLYDSNKRPSGIPARFSGSKSGTSATLGITGLQTGDEADYYCGTWDSSLNTVVFGGGTKLTVL
notes: mAb
For B2, the entries for the “FACS Binding Geomean” value in test [2] and in test [3] were 12200 and 7930, respectively. The “Normalization to wt ASGR1 Binding” value in test [4] is 0.707.

B3: 75G3 (antibody, V domains shown)
VH: QVQLQQWGAGLLKPSETLSLTCAVYGGSLSGSYWSWIRQPPGKGLEWIGEINLSGSTNYNPSLKSRVTISVDTSKSQFSLTLRSVTAADTAVYYCARDYGGLDYWGQGTLVTVSS
VL: EIVLTQSPGTLSLSPGERATLSCRARQNVDSSYLAWYQQKPGQAPRLLIYGASSRATGIPDRFSGSGSGTDFTLTISRLEPEDFAVFYCQQYERSPWTFGQGTKVEIK
notes: as for B1
Take B3: the binding result in test [1] was “no binding”.

B4: 75G3 (antibody, V domains shown)
VH: QVQLQQWGAGLLKPSETLSLTCAVYGGSLSGSYWSWIRQPPGKGLEWIGEINLSGSTNYNPSLKSRVTISVDTSKSQFSLTLRSVTAADTAVYYCARDYGGLDYWGQGTLVTVSS
VL: EIVLTQSPGTLSLSPGERATLSCRARQNVDSSYLAWYQQKPGQAPRLLIYGASSRATGIPDRFSGSGSGTDFTLTISRLEPEDFAVFYCQQYERSPWTFGQGTKVEIK
notes: mAb
Turning to B4, the “FACS Binding Geomean” value in test [2] worked out at 37200; in test [3], 14500. The “Normalization to wt ASGR1 Binding” value in test [4] was found to be 1.18.

B5: 190F8 (antibody, V domains shown)
VH: QVQLVESGGGVVQPGRSLRLSCAASGFTFSTYGMHWVRQAPGKGLEWVAVIWYDGSNKNYADSVKGRFTISRDNSKNTLYLQMNSLRAEDTAVYYCARDQGVGYDGLDVWGQGTTVTVSS
VL: DIQMTQSPSSLSASVGDRVTITCRTSQGIGNYLAWFQQKPGKAPKSLLYKASSLQSGVPSKFSGSGSGTDFTLTISSLQPEDFATYYCQQYMTYPLTFGGGTKVEIK
notes: as for B1
Take B5: the binding result in test [1] is listed as “no binding”.

B6: 197G3 (antibody, V domains shown)
VH: QVQLVESGGGVVQPGRSLRLSCVASGFTFSSHGMHWVRQAPGKGLEWVAVIWYDGSNKNYADSVKGRFTISRDNSKNTLYLQMNSLRAEDTAVYYCARDPSVGYDGMDVWGQGTTVTVSS
VL: DIQMTQSPSSLSASVGDRVTITCRASQGIGNHLAWFQQKPGKAPKSLIYAASSLQSGVPSKFSGSRSGTDFSLTISSLQPEDFATYYCQQYSNYPVTFGPGTKVDIK
notes: as for B1
In the case of B6, the binding result in test [1] is “no binding”.

B7: 194C1 (antibody, V domains shown)
VH: QVQLVESGGGVVQPGRSLRLSCAASGFTFSSYGMHWVRQAPGKGLEWVAVIWYDGSNEHYADSVKGRFTISRDNSKNTLYLQMNSLRAEDTAVYYCARNRGVGYYGLDVWGQGTTVTVSS
VL: DIQMTQSPSSLSASVGDRVTITCRASQGISNYLAWFQQKPGKAPKSLIYAASSLQSGVPSKFSGSGSGTDFTLTISSLQPEDFATYYCLHYLTYPLTFGGGTKVEIK
notes: as for B1
For B7, the binding result in test [1] was “no binding”.

B8: 191G10 (antibody, V domains shown)
VH: QVQLVESGGGVVQPGRSLRLSCAASGFTFSSYGMHWVRQAPGKGLEWVAVIWYDGSNKNYADSVKGRFTISRDNSKNTLYLQMNSLRAEDTAVYYCARDQGVGYDGLDVWGQGTTVTVSS
VL: DIQMTQSPSSLSASVGDRVTITCRTSQGIGKYLAWFQQKPGKAPKSLLYKVSSLQSGVPSKFSGSGSGTDFTLTISSLQPEDFATYYCQQYMTYPLTFGGGTKVEIK
notes: as for B1
As to B8, the binding result in test [1] is given as “no binding”.

B9: 191G1 (antibody, V domains shown)
VH: QVQLVESGGGVVQPGRSLRLSCAASGFTFSSYGMHWVRQAPGKGLEWVAVIWYDGSNEHYADSVKGRFTISRDNSKNTLYLQMNSLRAEDTAVYYCARDRGVGYYGLDVWGQGTTVTVSS
VL: DIQMTQSPSSLSASVGDRVTITCRASQGISNYLAWFQQKPGKAPKSLIYAASSLQSGVPSKFSGSGSGTDFTLTISSLQPEDFATYYCQHYLTYPLTFGGGTKVEIK
notes: as for B1
Regarding B9, the binding result in test [1] is “no binding”.

B10: 198G3 (antibody, V domains shown)
VH: QVQLVESGGGVVQPGRSLKLSCAASGFTFSTYGMHWVRQAPGKGLEWVAVIWYDGTNKNYADSVKGRFTISRDNSKNTLCLQMNSLRAEDTAVYYCARDQGVGYDGLDVWGQGTTVTVSS
VL: DIQMAQSPSSLSASVGDRVTITCRTSQGIGKYLAWFQQKPGKAPKSLLYKASSLQGGVPSKFSGSGSGTDFTLTISSLQPEDFATYYCQQYMTYPLTFGGGTKVEIK
notes: as for B1
Consider B10, for which the binding result in test [1] is given as “no binding”.

B11: 193E7 (antibody, V domains shown)
VH: QVQLQQWGAGLLKPSETLSLTCAVYGGSFSGYFWTWIRQPPGKGLEWIGEINHSGSTNYNPSLKSRVTISVDTSKNQFSLKLSSVTAADTAVYYCARDYGADYWGQGTLVAVSA
VL: DIQMTQSPSSLSASVGDRVTITCRASQGIRNDLGWYQQKPGKAPKRLIYSASSLQRGVPSRFSGSGSGTEFTLTISSLQPEDFATYYCLQHKRYPLTFGGGTKVEIK
notes: as for B1
Regarding B11, the binding result in test [1] is “no binding”.

B12: 193E7 (antibody, V domains shown)
VH: QVQLQQWGAGLLKPSETLSLTCAVYGGSFSGYFWTWIRQPPGKGLEWIGEINHSGSTNYNPSLKSRVTISVDTSKNQFSLKLSSVTAADTAVYYCARDYGADYWGQGTLVAVSA
VL: DIQMTQSPSSLSASVGDRVTITCRASQGIRNDLGWYQQKPGKAPKRLIYSASSLQRGVPSRFSGSGSGTEFTLTISSLQPEDFATYYCLQHKRYPLTFGGGTKVEIK
notes: mAb
B12: the entries for the “FACS Binding Geomean” value in test [2] and in test [3] were 35500 and 13800, respectively. For the same molecule, in test [4], the “Normalization to wt ASGR1 Binding” value stood at 1.18.

B13: 194C10 (antibody, V domains shown)
VH: QVQLQQWGAGLLKPSETLSLTCAVSGGSFRYYYWSWIRQPPGKGLEWFGEINHSGSTNYNPSLKSRVTISIDTSKNQFSLKLRSVTAADTAVYYCARDYGAFDIWGQGTMVTVSS
VL: EIVLTQSPGTLSLSPGERATLSCRASPSVNSGYLAWYQQKPGQTPRLLIFGASSRATGIPDRFSASGSGADFTLTISRLEPEDFAVYFCQQYESSPWTFGQGTKVEIK
notes: mAb
Take B13: the “FACS Binding Geomean” value turned out to be 28100 in test [2] and 13200 in test [3]. Further, the “Normalization to wt ASGR1 Binding” value in test [4] came to 0.978.
